In general, Kd refers to the equilibrium constant for the complex coming apart. A higher Kd goes with weaker binding.

The experiment concerns the target MAGI2 PDZ0-GK (mouse) (UniProt Q9WVQ1). In words: ITC.
UniProt Q9WVQ1, sequence (Q9WVQ1 9-238): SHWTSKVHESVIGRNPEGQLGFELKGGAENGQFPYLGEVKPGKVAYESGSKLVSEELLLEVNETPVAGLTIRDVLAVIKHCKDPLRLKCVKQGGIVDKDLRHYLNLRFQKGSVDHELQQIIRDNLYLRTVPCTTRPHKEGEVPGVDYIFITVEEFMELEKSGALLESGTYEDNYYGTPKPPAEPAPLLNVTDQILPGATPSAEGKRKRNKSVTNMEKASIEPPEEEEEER

Substance pSAPAP1-GBR2(E-1P) (peptide) returned a Kd of 70 nM. That is a double-digit nanomolar value. On to pSAPAP1-GBR2(T+5F) (peptide), for which the Kd is 70 nM.

(Values after PMC10171801.)
